{"source": "patent US12398179", "key": {"[1]": {"molecular_target": "EphA2 extracellular domain fused to the Fc portion of an antibody (EphA2 Fc)", "sequence (P29317 whole entry, the tested form may be a part)": "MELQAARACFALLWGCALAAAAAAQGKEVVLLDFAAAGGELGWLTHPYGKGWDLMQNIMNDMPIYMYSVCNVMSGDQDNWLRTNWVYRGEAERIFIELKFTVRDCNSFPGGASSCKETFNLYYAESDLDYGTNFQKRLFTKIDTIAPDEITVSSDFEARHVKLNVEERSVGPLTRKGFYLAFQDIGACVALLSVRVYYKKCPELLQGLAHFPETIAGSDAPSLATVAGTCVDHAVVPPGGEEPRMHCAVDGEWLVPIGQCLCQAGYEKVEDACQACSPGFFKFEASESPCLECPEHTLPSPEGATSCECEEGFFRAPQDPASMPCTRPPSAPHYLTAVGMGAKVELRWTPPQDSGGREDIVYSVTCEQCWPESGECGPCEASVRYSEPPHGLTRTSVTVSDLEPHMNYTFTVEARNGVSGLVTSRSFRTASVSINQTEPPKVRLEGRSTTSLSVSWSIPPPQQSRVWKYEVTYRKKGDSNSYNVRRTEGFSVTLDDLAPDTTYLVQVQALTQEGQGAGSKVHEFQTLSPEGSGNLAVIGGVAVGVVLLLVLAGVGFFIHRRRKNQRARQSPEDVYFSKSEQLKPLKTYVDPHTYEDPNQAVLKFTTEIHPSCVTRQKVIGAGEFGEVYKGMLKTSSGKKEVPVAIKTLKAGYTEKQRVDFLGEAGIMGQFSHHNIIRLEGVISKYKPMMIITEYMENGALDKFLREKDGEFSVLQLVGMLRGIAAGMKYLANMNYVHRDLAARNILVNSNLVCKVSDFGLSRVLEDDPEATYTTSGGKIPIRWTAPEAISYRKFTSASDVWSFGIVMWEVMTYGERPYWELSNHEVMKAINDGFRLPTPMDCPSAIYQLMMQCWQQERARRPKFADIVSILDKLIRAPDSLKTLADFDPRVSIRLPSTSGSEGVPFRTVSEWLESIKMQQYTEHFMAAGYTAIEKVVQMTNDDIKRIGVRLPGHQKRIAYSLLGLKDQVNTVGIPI", "assay": "ELISA, inhibition of ephrin-A5 AP binding to immobilized EphA2 Fc; representative experiment; concentrations in nM"}, "[2]": {"molecular_target": "EphA2 extracellular domain fused to the Fc portion of an antibody (EphA2 Fc)", "assay": "competition ELISA: inhibition of ephrin-A5 AP binding to immobilized EphA2 Fc; average ± SE (number of experiments)"}, "[3]": {"molecular_target": "EphA2 extracellular domain fused to the Fc portion of an antibody (EphA2 Fc)", "assay": "competition ELISA: inhibition of ephrin-A5 AP binding to EphA2 Fc"}, "[4]": {"molecular_target": "EphA2 extracellular domain fused to the Fc portion of an antibody (EphA2 Fc)", "assay": "ELISA, inhibition of ephrin-A5 AP binding to immobilized EphA2 Fc; representative experiment"}}, "note": "Non-standard residues stand in square brackets, D forms with d. No end group written: not given here. *: point of attachment. Biotin = O=C1N[C@H]2[C@H](CS[C@H]2CCCCC(=O)*)N1; βAla = NCCC(=O)O", "data": [{"binder": "[βAla]WLAYPDSVPYR", "note": "[βA-WLA-YR]", "values": [{"measurement": "IC50", "setting": "[1]", "value": 360, "unit": "nM"}, {"measurement": "IC50", "setting": "[2]", "value": 390, "unit": "nM"}]}, {"binder": "WLAYPDSVPM-NH2", "note": "[WLAam]", "values": [{"measurement": "fold improvement in potency against YSA1-10am", "setting": "[3]", "value": 2, "unit": "fold"}, {"measurement": "IC50", "setting": "[1]", "value": 1400, "unit": "nM"}, {"measurement": "IC50", "setting": "[2]", "value": 1500, "unit": "nM"}]}, {"binder": "[βAla]WLAYPDSVPM-NH2", "note": "[βA-WLAam]", "values": [{"measurement": "IC50", "setting": "[4]", "value": 680, "unit": "nM"}, {"measurement": "fold increase in potency against WLAam", "setting": "[3]", "value": 2, "unit": "fold"}, {"measurement": "IC50", "setting": "[2]", "value": 840, "unit": "nM"}]}, {"binder": "[βAla]WLAYPDSVPYK(Biotin)", "note": "[βA-WLA-YK-bio]", "values": [{"measurement": "IC50", "setting": "[2]", "value": 730, "unit": "nM"}]}, {"binder": "[βAla]WLAYPDSVPYSK", "note": "[βA-WLA-YSK]", "values": [{"measurement": "IC50", "setting": "[2]", "value": 380, "unit": "nM"}]}, {"binder": "[βAla]WLAYPDSVPYGSK(Biotin)", "note": "[βA-WLA-YGSK-bio]", "values": [{"measurement": "IC50", "setting": "[2]", "value": 400, "unit": "nM"}]}, {"binder": "[βAla]WLAYPDSVPYGSGK(Biotin)", "note": "[βA-WLA-YGSGK-bio]", "values": [{"measurement": "IC50", "setting": "[2]", "value": 330, "unit": "nM"}]}, {"binder": "[βAla]WLAYPDSVPYSPK(Biotin)", "note": "[βA-WLA-YSPK-bio]", "values": [{"measurement": "IC50", "setting": "[2]", "value": 62, "unit": "nM"}]}]}
